Laboratory results taken from IntAct's records for PubMed 31515488.

B1: Angiomotin (Homo sapiens), Q4VCS5 (parent)
chain: MRNSEEQPSGGTTVLQRLLQEQLRYGNPSENRSLLAIHQQATGNGPPFPSGSGNPGPQSDVLSPQDHHQQLVAHAARQEPQGQEIQSENLIMEKQLSPRMQNNEELPTYEEAKVQSQYFRGQQHASVGAAFYVTGVTNQKMRTEGRPSVQRLNPGKMHQDEGLRDLKQGHVRSLSERLMQMSLATSGVKAHPPVTSAPLSPPQPNDLYKNPTSSSEFYKAQGPLPNQHSLKGMEHRGPPPEYPFKGMPPQSVVCKPQEPGHFYSEHRLNQPGRTEGQLMRYQHPPEYGAARPAQDISLPLSARNSQPHSPTSSLTSGGSLPLLQSPPSTRLSPARHPLVPNQGDHSAHLPRPQQHFLPNQAHQGDHYRLSQPGLSQQQQQQQQQHHHHHHHQQQQQQQPQQQPGEAYSAMPRAQPSSASYQPVPADPFAIVSRAQQMVEILSDENRNLRQELEGCYEKVARLQKVETEIQRVSEAYENLVKSSSKREALEKAMRNKLEGEIRRMHDFNRDLRERLETANKQLAEKEYEGSEDTRKTISQLFAKNKESQREKEKLEAELATARSTNEDQRRHIEIRDQALSNAQAKVVKLEEELKKKQVYVDKVEKMQQALVQLQAACEKREQLEHRLRTRLERELESLRIQQRQGNCQPTNVSEYNAAALMELLREKEERILALEADMTKWEQKYLEENVMRHFALDAAATVAAQRDTTVISHSPNTSYDTALEARIQKEEEEILMANKRCLDMEGRIKTLHAQIIEKDAMIKVLQQRSRKEPSKTEQLSCMRPAKSLMSISNAGSGLLSHSSTLTGSPIMEEKRDDKSWKGSLGILLGGDYRAEYVPSTPSPVPPSTPLLSAHSKTGSRDCSTQTERGTESNKTAAVAPISVPAPVAAAATAAAITATAATITTTMVAAAPVAVAAAAAPAAAAAPSPATAAATAAAVSPAAAGQIPAAASVASAAAVAPSAAAAAAVQVAPAAPAPVPAPALVPVPAPAAAQASAPAQTQAPTSAPAVAPTPAPTPTPAVAQAEVPASPATGPGPHRLSIPSLTCNPDKTDGPVFHSNTLERKTPIQILGQEPDAEMVEYLI
B2: Placental protein 13-like (Homo sapiens), Q8TCE9 (parent)
chain: MSSLPVPYTLPVSLPVGSCVIITGTPILTFVKDPQLEVNFYTGMDEDSDIAFQFRLHFGHPAIMNSCVFGIWRYEEKCYYLPFEDGKPFELCIYVRHKEYKVMVNGQRIYNFAHRFPPASVKMLQVFRDISLTRVLISD
B3: Segment polarity protein dishevelled homolog DVL-2 (Homo sapiens), O14641 (parent)
chain: MAGSSTGGGGVGETKVIYHLDEEETPYLVKIPVPAERITLGDFKSVLQRPAGAKYFFKSMDQDFGVVKEEISDDNARLPCFNGRVVSWLVSSDNPQPEMAPPVHEPRAELAPPAPPLPPLPPERTSGIGDSRPPSFHPNVSSSHENLEPETETESVVSLRRERPRRRDSSEHGAGGHRTGGPSRLERHLAGYESSSTLMTSELESTSLGDSDEEDTMSRFSSSTEQSSASRLLKRHRRRRKQRPPRLERTSSFSSVTDSTMSLNIITVTLNMEKYNFLGISIVGQSNERGDGGIYIGSIMKGGAVAADGRIEPGDMLLQVNDMNFENMSNDDAVRVLRDIVHKPGPIVLTVAKCWDPSPQAYFTLPRNEPIQPIDPAAWVSHSAALTGTFPAYPGSSSMSTITSGSSLPDGCEGRGLSVHTDMASVTKAMAAPESGLEVRDRMWLKITIPNAFLGSDVVDWLYHHVEGFPERREARKYASGLLKAGLIRHTVNKITFSEQCYYVFGDLSGGCESYLVNLSLNDNDGSSGASDQDTLAPLPGATPWPLLPTFSYQYPAPHPYSPQPPPYHELSSYTYGGGSASSQHSEGSRSSGSTRSDGGAGRTGRPEERAPESKSGSGSESEPSSRGGSLRRGGEASGTSDGGPPPSRGSTGGAPNLRAHPGLHPYGPPPGMALPYNPMMVVMMPPPPPPVPPAVQPPGAPPVRDLGSVPPELTASRQSFHMAMGNPSEFFVDVM
partner: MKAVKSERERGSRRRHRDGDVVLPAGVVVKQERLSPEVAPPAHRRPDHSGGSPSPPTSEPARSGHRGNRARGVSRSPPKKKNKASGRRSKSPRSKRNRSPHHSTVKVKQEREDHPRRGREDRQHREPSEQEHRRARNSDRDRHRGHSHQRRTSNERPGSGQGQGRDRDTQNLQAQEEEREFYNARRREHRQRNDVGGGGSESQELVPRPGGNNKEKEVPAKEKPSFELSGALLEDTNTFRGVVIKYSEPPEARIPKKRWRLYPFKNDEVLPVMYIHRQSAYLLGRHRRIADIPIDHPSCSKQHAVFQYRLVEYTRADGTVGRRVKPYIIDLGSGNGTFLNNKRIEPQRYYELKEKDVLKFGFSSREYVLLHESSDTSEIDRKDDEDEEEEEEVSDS
B4: Copper homeostasis protein cutC homolog (Homo sapiens), Q9NTM9 (parent)
chain: MKRQGASSERKRARIPSGKAGAANGFLMEVCVDSVESAVNAERGGADRIELCSGLSEGGTTPSMGVLQVVKQSVQIPVFVMIRPRGGDFLYSDREIEVMKADIRLAKLYGADGLVFGALTEDGHIDKELCMSLMAICRPLPVTFHRAFDMVHDPMAALETLLTLGFERVLTSGCDSSALEGLPLIKRLIEQAKGRIVVMPGGGITDRNLQRILEGSGATEFHCSARSTRDSGMKFRNSSVAMGASLSCSEYSLKVTDVTKVRTLNAIAKNILV
B5: Endophilin-B2 (Homo sapiens), Q9NR46 (parent)
chain: MDFNMKKLASDAGIFFTRAVQFTEEKFGQAEKTELDAHFENLLARADSTKNWTEKILRQTEVLLQPNPSARVEEFLYEKLDRKVPSRVTNGELLAQYMADAASELGPTTPYGKTLIKVAEAEKQLGAAERDFIHTASISFLTPLRNFLEGDWKTISKERRLLQNRRLDLDACKARLKKAKAAEAKATTVPDFQETRPRNYILSASASALWNDEVDKAEQELRVAQTEFDRQAEVTRLLLEGISSTHVNHLRCLHEFVKSQTTYYAQCYRHMLDLQKQLGRFPGTFVGTTEPASPPLSSTSPTTAAATMPVVPSVASLAPPGEASLCLEEVAPPASGTRKARVLYDYEAADSSELALLADELITVYSLPGMDPDWLIGERGNKKGKVPVTYLELLS
partner: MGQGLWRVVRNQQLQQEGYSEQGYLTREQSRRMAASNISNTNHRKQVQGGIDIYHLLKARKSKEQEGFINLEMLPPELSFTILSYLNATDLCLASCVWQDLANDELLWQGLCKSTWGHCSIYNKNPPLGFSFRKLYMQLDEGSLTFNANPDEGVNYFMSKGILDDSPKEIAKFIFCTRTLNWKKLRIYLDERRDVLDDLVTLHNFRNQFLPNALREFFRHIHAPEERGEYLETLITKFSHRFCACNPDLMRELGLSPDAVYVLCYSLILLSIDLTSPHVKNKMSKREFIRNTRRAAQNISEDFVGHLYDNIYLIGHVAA
B6: E3 ubiquitin-protein ligase CBL-B (Homo sapiens), Q13191 (parent)
chain: MANSMNGRNPGGRGGNPRKGRILGIIDAIQDAVGPPKQAAADRRTVEKTWKLMDKVVRLCQNPKLQLKNSPPYILDILPDTYQHLRLILSKYDDNQKLAQLSENEYFKIYIDSLMKKSKRAIRLFKEGKERMYEEQSQDRRNLTKLSLIFSHMLAEIKAIFPNGQFQGDNFRITKADAAEFWRKFFGDKTIVPWKVFRQCLHEVHQISSGLEAMALKSTIDLTCNDYISVFEFDIFTRLFQPWGSILRNWNFLAVTHPGYMAFLTYDEVKARLQKYSTKPGSYIFRLSCTRLGQWAIGYVTGDGNILQTIPHNKPLFQALIDGSREGFYLYPDGRSYNPDLTGLCEPTPHDHIKVTQEQYELYCEMGSTFQLCKICAENDKDVKIEPCGHLMCTSCLTAWQESDGQGCPFCRCEIKGTEPIIVDPFDPRDEGSRCCSIIDPFGMPMLDLDDDDDREESLMMNRLANVRKCTDRQNSPVTSPGSSPLAQRRKPQPDPLQIPHLSLPPVPPRLDLIQKGIVRSPCGSPTGSPKSSPCMVRKQDKPLPAPPPPLRDPPPPPPERPPPIPPDNRLSRHIHHVESVPSRDPPMPLEAWCPRDVFGTNQLVGCRLLGEGSPKPGITASSNVNGRHSRVGSDPVLMRKHRRHDLPLEGAKVFSNGHLGSEEYDVPPRLSPPPPVTTLLPSIKCTGPLANSLSEKTRDPVEEDDDEYKIPSSHPVSLNSQPSHCHNVKPPVRSCDNGHCMLNGTHGPSSEKKSNIPDLSIYLKGDVFDSASDPVPLPPARPPTRDNPKHGSSLNRTPSDYDLLIPPLGEDAFDALPPSLPPPPPPARHSLIEHSKPPGSSSRPSSGQDLFLLPSDPFVDLASGQVPLPPARRLPGENVKTNRTSQDYDQLPSCSDGSQAPARPPKPRPRRTAPEIHHRKPHGPEAALENVDAKIAKLMGEGYAFEEVKRALEIAQNNVEVARSILREFAFPPPVSPRLNL
B7: G-patch domain and KOW motifs-containing protein (Homo sapiens), Q92917 (parent)
chain: MADSKEGVLPLTAASTAPISFGFTRTSARRRLADSGDGAGPSPEEKDFLKTVEGRELQSVKPQEAPKELVIPLIQNGHRRQPPARPPGPSTDTGALADGVVSQAVKELIAESKKSLEERENAGVDPTLAIPMIQKGCTPSGEGADSEPRAETVPEEANYEAVPVEAYGLAMLRGMGWKPGEGIGRTFNQVVKPRVNSLRPKGLGLGANLTEAQALTPTGPSRMPRPDEEQEKDKEDQPQGLVPGGAVVVLSGPHRGLYGKVEGLDPDNVRAMVRLAVGSRVVTVSEYYLRPVSQQEFDKNTLDLRQQNGTASSRKTLWNQELYIQQDNSERKRKHLPDRQDGPAAKSEKAAPRSQHWLHRDLRVRFVDNMYKGGQYYNTKMIIEDVLSPDTCVCRTDEGRVLEGLREDMLETLVPKAEGDRVMVVLGPQTGRVGHLLSRDRARSRALVQLPRENQVVELHYDAICQYMGPSDTDDD

Variants of: B1
Conditions: with UNC119, Q13432

Row | effect of a mutation on the interaction | Variant
1 | with no effect | A556V

Variants of: B1
Conditions: with KRT15, P19012
KRT15, P19012, sequence (P19012 whole entry): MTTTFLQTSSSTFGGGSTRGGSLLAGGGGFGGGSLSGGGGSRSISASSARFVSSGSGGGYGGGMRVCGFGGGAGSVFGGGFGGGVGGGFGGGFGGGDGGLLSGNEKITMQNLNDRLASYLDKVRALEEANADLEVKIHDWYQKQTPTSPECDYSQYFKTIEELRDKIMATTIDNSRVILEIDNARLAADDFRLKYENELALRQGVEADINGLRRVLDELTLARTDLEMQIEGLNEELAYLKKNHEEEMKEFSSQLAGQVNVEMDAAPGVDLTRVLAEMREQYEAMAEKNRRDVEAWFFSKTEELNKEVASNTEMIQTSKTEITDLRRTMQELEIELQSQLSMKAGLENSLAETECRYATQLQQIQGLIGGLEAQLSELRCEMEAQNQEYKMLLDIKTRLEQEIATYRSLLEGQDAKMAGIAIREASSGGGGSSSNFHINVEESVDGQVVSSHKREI

Row | effect of a mutation on the interaction | Variant
2 | with no effect | A556V

Variants of: B2
Conditions: with trim1_human MID2, Q9UJV3
trim1_human MID2, Q9UJV3, sequence (Q9UJV3 whole entry): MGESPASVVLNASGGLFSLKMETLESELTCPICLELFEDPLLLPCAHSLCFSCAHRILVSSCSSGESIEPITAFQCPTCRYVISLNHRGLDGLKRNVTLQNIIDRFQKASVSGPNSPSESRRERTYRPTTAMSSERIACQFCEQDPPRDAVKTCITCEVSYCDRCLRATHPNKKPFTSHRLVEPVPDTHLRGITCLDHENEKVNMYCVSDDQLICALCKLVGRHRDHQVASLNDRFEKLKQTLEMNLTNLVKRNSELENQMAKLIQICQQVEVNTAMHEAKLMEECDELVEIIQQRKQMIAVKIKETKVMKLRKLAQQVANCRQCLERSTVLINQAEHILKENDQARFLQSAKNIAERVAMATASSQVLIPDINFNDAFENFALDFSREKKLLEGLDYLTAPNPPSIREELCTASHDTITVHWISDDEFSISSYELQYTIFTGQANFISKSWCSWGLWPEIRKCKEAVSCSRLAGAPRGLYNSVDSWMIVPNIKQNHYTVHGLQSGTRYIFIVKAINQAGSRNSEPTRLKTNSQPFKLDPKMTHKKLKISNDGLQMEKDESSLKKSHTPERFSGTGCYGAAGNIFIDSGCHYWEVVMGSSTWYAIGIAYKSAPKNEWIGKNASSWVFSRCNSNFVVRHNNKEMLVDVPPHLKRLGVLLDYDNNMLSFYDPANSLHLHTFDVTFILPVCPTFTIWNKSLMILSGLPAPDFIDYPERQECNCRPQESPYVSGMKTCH

Row | effect of a mutation on the interaction | Variant
3 | disrupting interaction strength | M123T

Variants of: B2
Conditions: with ikzf3_human IKZF3, Q9UKT9
ikzf3_human IKZF3, Q9UKT9, sequence (Q9UKT9 whole entry): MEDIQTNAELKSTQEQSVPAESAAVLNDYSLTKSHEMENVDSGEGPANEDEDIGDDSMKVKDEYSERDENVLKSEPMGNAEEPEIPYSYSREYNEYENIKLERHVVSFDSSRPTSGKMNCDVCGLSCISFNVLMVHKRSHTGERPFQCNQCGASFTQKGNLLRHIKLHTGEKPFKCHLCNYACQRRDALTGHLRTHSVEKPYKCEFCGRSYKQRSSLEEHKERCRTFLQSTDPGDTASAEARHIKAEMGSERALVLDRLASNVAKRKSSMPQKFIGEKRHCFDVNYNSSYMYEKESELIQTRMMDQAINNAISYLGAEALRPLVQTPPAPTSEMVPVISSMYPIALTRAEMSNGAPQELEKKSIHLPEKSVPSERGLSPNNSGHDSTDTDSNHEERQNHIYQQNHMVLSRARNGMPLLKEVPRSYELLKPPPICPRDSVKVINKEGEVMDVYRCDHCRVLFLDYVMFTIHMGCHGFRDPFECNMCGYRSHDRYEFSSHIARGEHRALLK

Row | effect of a mutation on the interaction | Variant
4 | disrupting interaction strength | M123T

Variants of: B2
Conditions: with itf2_human TCF4, P15884
itf2_human TCF4, P15884, sequence (P15884 whole entry): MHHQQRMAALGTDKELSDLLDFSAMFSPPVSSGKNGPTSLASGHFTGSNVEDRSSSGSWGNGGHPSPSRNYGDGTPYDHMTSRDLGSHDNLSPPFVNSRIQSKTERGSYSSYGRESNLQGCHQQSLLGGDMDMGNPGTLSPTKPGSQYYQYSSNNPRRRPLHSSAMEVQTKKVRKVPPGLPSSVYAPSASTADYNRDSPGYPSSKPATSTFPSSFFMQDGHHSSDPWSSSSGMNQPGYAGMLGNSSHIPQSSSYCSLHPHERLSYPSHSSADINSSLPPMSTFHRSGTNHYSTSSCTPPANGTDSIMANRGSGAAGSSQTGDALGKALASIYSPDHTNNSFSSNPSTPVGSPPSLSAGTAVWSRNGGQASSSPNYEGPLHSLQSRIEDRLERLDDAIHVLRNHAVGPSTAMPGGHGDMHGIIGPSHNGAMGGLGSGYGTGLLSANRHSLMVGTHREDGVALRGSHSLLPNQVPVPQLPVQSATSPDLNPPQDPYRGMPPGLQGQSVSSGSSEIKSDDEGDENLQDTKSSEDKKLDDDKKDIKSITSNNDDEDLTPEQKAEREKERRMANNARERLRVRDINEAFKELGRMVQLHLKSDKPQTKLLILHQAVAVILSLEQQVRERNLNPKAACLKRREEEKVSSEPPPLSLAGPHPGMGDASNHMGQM

Row | effect of a mutation on the interaction | Variant
5 | disrupting interaction strength | M123T

Variants of: B2
Conditions: with gfap_human GFAP

Row | effect of a mutation on the interaction | Variant
6 | disrupting interaction strength | M123T

Variants of: B3
Conditions: with snip1_human SNIP1, Q8TAD8

Row | effect of a mutation on the interaction | Variant
7 | with no effect | T535I
8 | with no effect | A53V

Variants of: B4
Conditions: with lnx1_human LNX1, Q8TBB1
lnx1_human LNX1, Q8TBB1, sequence (Q8TBB1 whole entry): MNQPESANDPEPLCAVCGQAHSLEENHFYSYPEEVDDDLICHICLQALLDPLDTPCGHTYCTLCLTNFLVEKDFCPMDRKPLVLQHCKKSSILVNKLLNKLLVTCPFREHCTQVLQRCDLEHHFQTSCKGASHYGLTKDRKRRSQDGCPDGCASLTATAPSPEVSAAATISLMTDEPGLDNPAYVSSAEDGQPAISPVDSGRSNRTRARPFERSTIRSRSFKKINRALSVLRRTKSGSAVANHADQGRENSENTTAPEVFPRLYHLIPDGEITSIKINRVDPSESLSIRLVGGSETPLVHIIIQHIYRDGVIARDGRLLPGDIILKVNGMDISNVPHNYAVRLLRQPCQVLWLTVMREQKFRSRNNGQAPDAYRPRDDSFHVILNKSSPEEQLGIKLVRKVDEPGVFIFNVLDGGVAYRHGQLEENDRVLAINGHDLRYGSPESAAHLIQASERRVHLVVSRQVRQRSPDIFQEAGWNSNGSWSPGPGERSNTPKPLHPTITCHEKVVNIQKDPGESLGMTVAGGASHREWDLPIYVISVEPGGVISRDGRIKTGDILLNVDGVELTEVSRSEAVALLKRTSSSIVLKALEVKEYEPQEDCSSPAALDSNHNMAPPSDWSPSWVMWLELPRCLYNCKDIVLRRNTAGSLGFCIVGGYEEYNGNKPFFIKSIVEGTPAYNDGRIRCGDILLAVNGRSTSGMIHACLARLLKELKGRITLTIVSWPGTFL

Row | effect of a mutation on the interaction | Variant
9 | disrupting interaction strength | P77L

Variants of: B5
Conditions: with fbx8_human FBXO8, Q9NRD0

Row | effect of a mutation on the interaction | Variant
10 | with no effect | V223M

Variants of: B6
Conditions: with gors2_human GORASP2, Q9H8Y8

Row | effect of a mutation on the interaction | Variant
11 | with no effect | S622T

Variants of: B7
Conditions: with tri23_human TRIM23, P36406
tri23_human TRIM23, P36406, sequence (P36406 whole entry): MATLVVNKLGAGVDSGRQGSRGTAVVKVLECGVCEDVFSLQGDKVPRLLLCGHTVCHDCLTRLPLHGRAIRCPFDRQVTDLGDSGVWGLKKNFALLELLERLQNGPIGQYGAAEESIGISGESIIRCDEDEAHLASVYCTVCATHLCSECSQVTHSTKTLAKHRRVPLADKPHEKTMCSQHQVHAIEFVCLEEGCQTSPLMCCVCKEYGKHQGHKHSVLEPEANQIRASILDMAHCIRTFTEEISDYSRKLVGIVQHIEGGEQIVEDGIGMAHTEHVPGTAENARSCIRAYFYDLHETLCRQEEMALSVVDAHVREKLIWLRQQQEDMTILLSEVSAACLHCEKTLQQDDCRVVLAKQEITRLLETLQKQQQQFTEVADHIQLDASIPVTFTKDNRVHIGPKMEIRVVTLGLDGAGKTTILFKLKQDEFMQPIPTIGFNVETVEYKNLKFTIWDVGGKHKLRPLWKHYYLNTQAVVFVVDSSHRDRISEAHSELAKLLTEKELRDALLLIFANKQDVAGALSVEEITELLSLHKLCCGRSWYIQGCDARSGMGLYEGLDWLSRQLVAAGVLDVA

Row | effect of a mutation on the interaction | Variant
12 | with no effect | A129T

Variants of: B7
Conditions: with traf2_human TRAF2, Q12933
traf2_human TRAF2, Q12933, sequence (Q12933 whole entry): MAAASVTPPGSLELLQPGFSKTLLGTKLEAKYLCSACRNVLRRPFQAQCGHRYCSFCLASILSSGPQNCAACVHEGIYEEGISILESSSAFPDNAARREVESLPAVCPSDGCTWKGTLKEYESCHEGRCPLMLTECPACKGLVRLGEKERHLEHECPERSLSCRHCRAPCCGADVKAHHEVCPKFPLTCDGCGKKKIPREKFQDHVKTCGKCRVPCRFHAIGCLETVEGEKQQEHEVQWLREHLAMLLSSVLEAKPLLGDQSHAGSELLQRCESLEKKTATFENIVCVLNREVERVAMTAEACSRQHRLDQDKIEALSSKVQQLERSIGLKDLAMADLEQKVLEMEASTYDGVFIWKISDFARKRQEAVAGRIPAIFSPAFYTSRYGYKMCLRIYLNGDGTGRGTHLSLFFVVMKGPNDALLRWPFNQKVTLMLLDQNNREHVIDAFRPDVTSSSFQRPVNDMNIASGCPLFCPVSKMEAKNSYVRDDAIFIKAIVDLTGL

Row | effect of a mutation on the interaction | Variant
13 | with no effect | A129T
